# Assay results reported in patent US10064928B2, “Peptides and combination of peptides for use in immunotherapy against CLL and other cancers” (IMMATICS BIOTECHNOLOGIES GMBH, priority 2015, dated 2018).
# Biological target: HLA-A*02:01 (Homo sapiens, UniProt P04439, D140Y/D185E/D98H/E176V/E277Q/G131W/G231S/I119V/I121R/I166T/I218V/L300P/L318F/N151K/N90K/P208A/P217A/Q86G/Q94H/R138H/R169H/T345S)
# Assay: MHC binding assay (UV-ligand exchange, beta2m ELISA)
# Conditions: binding of HLA-class I restricted peptides to HLA-A*02:01, β2m ELISA
# In short: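 Exchange yield, UV-ligand exchange: 100-fold diluted samples on streptavidin plates, 1 h at 37 °C; HRP anti-β2m 1 h at 37 °C; TMB read at 450 nm.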
row,Substance,"Peptide Exchange (MHC class I binding score, peptide exchange yield)"
1,118 (RLLILENILL; listed as Homo sapiens) [compound 118],“+++” (≥50 = +++)
2,324 (SLYSALQQA; listed as Homo sapiens) [compound 324],“+++” (≥50 = +++)
3,23 (ALYLTEVFL; listed as Homo sapiens) [compound 23],“++++” (≥75% = ++++)
4,351 (ALSEKLARL; listed as Homo sapiens) [compound 351],“+++” (≥50 = +++)
5,147 (SILETVATL; listed as Homo sapiens) [compound 147],“+++” (≥50 = +++)
6,25 (ATYSGLESQSV; listed as Homo sapiens) [compound 25],“++” (≥20% = ++)
7,289 (ILEEQPMDMLL; listed as Homo sapiens) [compound 289],“+++” (≥50 = +++)
8,244 (ILQALAVHL; listed as Homo sapiens) [compound 244],“+++” (≥50 = +++)
9,275 (VLLFIEHSV; listed as Homo sapiens) [compound 275],“+++” (≥50 = +++)
10,109 (KLWEGLTELV; listed as Homo sapiens) [compound 109],“+++” (≥50 = +++)
11,269 (TLTDEQFLV; listed as Homo sapiens) [compound 269],“++” (≥20% = ++)
12,191 (YIFDGSDGGV; listed as Homo sapiens) [compound 191],“+++” (≥50 = +++)
13,271 (VIRNIVEAA; listed as Homo sapiens) [compound 271],“++” (≥20% = ++)
14,142 (QLDEPAPQV; listed as Homo sapiens) [compound 142],“++” (≥20% = ++)
15,139 (NLTDVVEKL; listed as Homo sapiens) [compound 139],“+++” (≥50 = +++)
16,158 (SLPEAPLDV; listed as Homo sapiens) [compound 158],“+++” (≥50 = +++)
17,285 (GVATAGCVNEV; listed as Homo sapiens) [compound 285],“++++” (≥75% = ++++)
18,152 (SLIRILQTI; listed as Homo sapiens) [compound 152],“+++” (≥50 = +++)
19,29 (AVLQAVTAV; listed as Homo sapiens) [compound 29],“+++” (≥50 = +++)
20,80 (VLIEDELEEL; listed as Homo sapiens) [compound 80],“++” (≥20% = ++)
21,58 (YIQQGIFSV; listed as Homo sapiens) [compound 58],“+++” (≥50 = +++)

row,Substance,"Peptide Exchange (MHC class I binding score, peptide exchange yield)"
1,165 (TLDDDLDTV; listed as Homo sapiens) [compound 165],“++” (≥20% = ++)
2,316 (MLLEHGITL; listed as Homo sapiens) [compound 316],“+++” (≥50 = +++)
3,276 (VLNDGAPNV; listed as Homo sapiens) [compound 276],“+++” (≥50 = +++)
4,65 (GLDDMKANL; listed as Homo sapiens) [compound 65],“++” (≥20% = ++)
5,260 (SLDDVEGMSV; listed as Homo sapiens) [compound 260],“+++” (≥50 = +++)
6,232 (FMHQIIDQV; listed as Homo sapiens) [compound 232],“++++” (≥75% = ++++)
7,384 (YMIGSEVGNYL; listed as Homo sapiens) [compound 384],“++++” (≥75% = ++++)
8,304 (LAIVPVNTL; listed as Homo sapiens) [compound 304],“+” (≥10% = +)
9,288 (GLAESTGLLAV; listed as Homo sapiens) [compound 288],“+++” (≥50 = +++)
10,48 (FLSPQQPPLL; listed as Homo sapiens) [compound 48],“+++” (≥50 = +++)
11,82 (GLQSGVDIGV; listed as Homo sapiens) [compound 82],“+++” (≥50 = +++)
12,326 (VLAFLVHEL; listed as Homo sapiens) [compound 326],“++++” (≥75% = ++++)
13,311 (LLVDVEPKV; listed as Homo sapiens) [compound 311],“+++” (≥50 = +++)
14,344 (VLAFENPQV; listed as Homo sapiens) [compound 344],“+++” (≥50 = +++)
15,36 (FILTHVDQL; listed as Homo sapiens) [compound 36],“++++” (≥75% = ++++)
16,35 (FILPSSLYL; listed as Homo sapiens) [compound 35],“+++” (≥50 = +++)
17,231 (FLYIRQLAI; listed as Homo sapiens) [compound 231],“+++” (≥50 = +++)
18,375 (VLWFKPVEL; listed as Homo sapiens) [compound 375],“+++” (≥50 = +++)
19,143 (QLLDTYFTL; listed as Homo sapiens) [compound 143],“+++” (≥50 = +++)
20,221 (ALVSTIIMV; listed as Homo sapiens) [compound 221],“+” (≥10% = +)
21,301 (AASPIITLV; listed as Homo sapiens) [compound 301],“+++” (≥50 = +++)

row,Substance,"Peptide Exchange (MHC class I binding score, peptide exchange yield)"
1,113 (KVPAEEVLVAV; listed as Homo sapiens) [compound 113],“+++” (≥50 = +++)
2,292 (AAALIIHHV; listed as Homo sapiens) [compound 292],“+++” (≥50 = +++)
3,155 (SLMLEVPAL; listed as Homo sapiens) [compound 155],“+++” (≥50 = +++)
4,258 (RLDYITAEI; listed as Homo sapiens) [compound 258],“+++” (≥50 = +++)
5,55 (FMEPTLLML; listed as Homo sapiens) [compound 55],“+++” (≥50 = +++)
6,266 (TLLDQLDTQL; listed as Homo sapiens) [compound 266],“++” (≥20% = ++)
7,41 (FLDPSLDPLL; listed as Homo sapiens) [compound 41],“+++” (≥50 = +++)
8,369 (RLLDLENSLLGL; listed as Homo sapiens) [compound 369],“+++” (≥50 = +++)
9,173 (TVIENIHTI; listed as Homo sapiens) [compound 173],“++” (≥20% = ++)
10,346 (VLVQVSPSL; listed as Homo sapiens) [compound 346],“+++” (≥50 = +++)
11,37 (FIMEGGAMVL; listed as Homo sapiens) [compound 37],“++++” (≥75% = ++++)
12,367 (NLWSLVAKV; listed as Homo sapiens) [compound 367],“+++” (≥50 = +++)
13,130 (LLVLIPVYL; listed as Homo sapiens) [compound 130],“+” (≥10% = +)
14,364 (KMDWIFHTI; listed as Homo sapiens) [compound 364],“+++” (≥50 = +++)
15,170 (TLTFRVETV; listed as Homo sapiens) [compound 170],“+++” (≥50 = +++)
16,226 (AMNISVPQV; listed as Homo sapiens) [compound 226],“+++” (≥50 = +++)
17,203 (ALLSSQLAL; listed as Homo sapiens) [compound 203],“+++” (≥50 = +++)
18,286 (FLLEDLSQKL; listed as Homo sapiens) [compound 286],“+++” (≥50 = +++)
19,150 (SLFDQPLSII; listed as Homo sapiens) [compound 150],“+++” (≥50 = +++)
